Data from publication doi:10.1101/2020.06.29.177279 (bioRxiv, 2020).
Blank lines part the entries; values can stand above or below the binder they belong to.

Columns and labels:
Assay in all cases: cryo-EM structure
[1] = molecular target: RPABC1 (human (endogenous in HeLa), UniProt P19388 1-210)
[2] = molecular target: T1, RPC8 (human (endogenous in HeLa), UniProt Q9Y535 1-204)
T1 sequence: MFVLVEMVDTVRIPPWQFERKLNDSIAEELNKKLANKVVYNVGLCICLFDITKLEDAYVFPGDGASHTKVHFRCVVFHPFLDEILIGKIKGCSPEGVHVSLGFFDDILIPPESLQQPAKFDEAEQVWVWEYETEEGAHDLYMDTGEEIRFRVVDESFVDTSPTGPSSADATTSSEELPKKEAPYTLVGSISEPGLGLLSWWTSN

[3] = molecular target: T2, RPC5 (from HeLa) (human (endogenous in HeLa), UniProt Q9NVU0 1-708)
T2 sequence: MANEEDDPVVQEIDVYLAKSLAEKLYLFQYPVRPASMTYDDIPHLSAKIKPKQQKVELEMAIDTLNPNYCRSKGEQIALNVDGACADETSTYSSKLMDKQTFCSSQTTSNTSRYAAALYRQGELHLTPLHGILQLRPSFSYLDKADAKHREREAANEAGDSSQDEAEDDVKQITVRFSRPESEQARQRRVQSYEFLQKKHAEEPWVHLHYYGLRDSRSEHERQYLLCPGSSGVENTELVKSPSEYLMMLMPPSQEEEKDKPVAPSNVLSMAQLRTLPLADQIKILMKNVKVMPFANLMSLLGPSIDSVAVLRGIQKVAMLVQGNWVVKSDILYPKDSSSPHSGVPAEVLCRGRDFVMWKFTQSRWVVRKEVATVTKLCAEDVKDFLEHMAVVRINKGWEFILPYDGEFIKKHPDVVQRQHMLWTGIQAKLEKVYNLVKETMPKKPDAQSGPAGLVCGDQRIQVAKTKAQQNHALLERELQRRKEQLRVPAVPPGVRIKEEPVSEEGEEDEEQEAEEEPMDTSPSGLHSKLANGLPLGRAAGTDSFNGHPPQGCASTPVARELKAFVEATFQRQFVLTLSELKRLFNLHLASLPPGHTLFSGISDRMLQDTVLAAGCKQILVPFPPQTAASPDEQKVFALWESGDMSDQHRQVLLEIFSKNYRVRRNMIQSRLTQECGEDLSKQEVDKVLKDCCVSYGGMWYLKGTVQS

binding result [1]: binds
B1: RPC1, largest subunit of human Pol III (from HeLa) (natural protein)
chain: MVKEQFRETDVAKKISHICFGMKSPEEMRQQAHIQVVSKNLYSQDNQHAPLLYGVLDHRMGTSEKDRPCETCGKNLADCLGHYGYIDLELPCFHVGYFRAVIGILQMICKTCCHIMLSQEEKKQFLDYLKRPGLTYLQKRGLKKKISDKCRKKNICHHCGAFNGTVKKCGLLKIIHEKYKTNKKVVDPIVSNFLQSFETAIEHNKEVEPLLGRAQENLNPLVVLNLFKRIPAEDVPLLLMNPEAGKPSDLILTRLLVPPLCIRPSVVSDLKSGTNEDDLTMKLTEIIFLNDVIKKHRISGAKTQMIMEDWDFLQLQCALYINSELSGIPLNMAPKKWTRGFVQRLKGKQGRFRGNLSGKRVDFSGRTVISPDPNLRIDEVAVPVHVAKILTFPEKVNKANINFLRKLVQNGPEVHPGANFIQQRHTQMKRFLKYGNREKMAQELKYGDIVERHLIDGDVVLFNRQPSLHKLSIMAHLARVKPHRTFRFNECVCTPYNADFDGDEMNLHLPQTEEAKAEALVLMGTKANLVTPRNGEPLIAAIQDFLTGAYLLTLKDTFFDRAKACQIIASILVGKDEKIKVRLPPPTILKPVTLWTGKQIFSVILRPSDDNPVRANLRTKGKQYCGKGEDLCANDSYVTIQNSELMSGSMDKGTLGSGSKNNIFYILLRDWGQNEAADAMSRLARLAPVYLSNRGFSIGIGDVTPGQGLLKAKYELLNAGYKKCDEYIEALNTGKLQQQPGCTAEETLEALILKELSVIRDHAGSACLRELDKSNSPLTMALCGSKGSFINISQMIACVGQQAISGSRVPDGFENRSLPHFEKHSKLPAAKGFVANSFYSGLTPTEFFFHTMAGREGLVDTAVKTAETGYMQRRLVKSLEDLCSQYDLTVRSSTGDIIQFIYGGDGLDPAAMEGKDEPLEFKRVLDNIKAVFPCPSEPALSKNELILTTESIMKKSEFLCCQDSFLQEIKKFIKGVSEKIKKTRDKYGINDNGTTEPRVLYQLDRITPTQVEKFLETCRDKYMRAQMEPGSAVGALCAQSIGEPGTQMTLKTFHFAGVASMNITLGVPRIKEIINASKAISTPIITAQLDKDDDADYARLVKGRIEKTLLGEISEYIEEVFLPDDCFILVKLSLERIRLLRLEVNAETVRYSICTSKLRVKPGDVAVHGEAVVCVTPRENSKSSMYYVLQFLKEDLPKVVVQGIPEVSRAVIHIDEQSGKEKYKLLVEGDNLRAVMATHGVKGTRTTSNNTYEVEKTLGIEAARTTIINEIQYTMVNHGMSIDRRHVMLLSDLMTYKGEVLGITRFGLAKMKESVLMLASFEKTADHLFDAAYFGQKDSVCGVSECIIMGIPMNIGTGLFKLLHKADRDPNPPKRPLIFDTNEFHIPLVT

binding result [2]: binds
B2: RPC9 (natural protein)
chain: not shown

binding result [3]: binds
B3: RPC4 (from HeLa) (natural protein)
chain: MSEGNAAGEPSTPGGPRPLLTGARGLIGRRPAPPLTPGRLPSIRSRDLTLGGVKKKTFTPNIISRKIKEEPKEEVTVKKEKRERDRDRQREGHGRGRGRPEVIQSHSIFEQGPAEMMKKKGNWDKTVDVSDMGPSHIINIKKEKRETDEETKQILRMLEKDDFLDDPGLRNDTRNMPVQLPLAHSGWLFKEENDEPDVKPWLAGPKEEDMEVDIPAVKVKEEPRDEEEEAKMKAPPKAARKTPGLPKDVSVAELLRELSLTKEEELLFLQLPDTLPGQPPTQDIKPIKTEVQGEDGQVVLIKQEKDREAKLAENACTLADLTEGQVGKLLIRKSGRVQLLLGKVTLDVTMGTACSFLQELVSVGLGDSRTGEMTVLGHVKHKLVCSPDFESLLDHKHR
